Measured values: the nanobody polyreactivity screen of Harvey et al. (2022)

Test: yeast display, Sf9 membrane polyspecificity reagent, FACS + sequencing; frameworks hold sequencing errors
Procedure, shortened: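 A nanobody's polyreactivity label depends on the gate it was sorted from. Yeast display cells were stained with 10% biotinylated, detergent-solubilized Sf9 membrane reagent for 1 hour at 4 °C, enriched on streptavidin microbeads and sorted by FACS. The low and high (top ~1%) gates were set on anti-HA fluorescence for expression and streptavidin fluorescence for reagent binding.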

Sequence	polyreactivity (PSR sort gate)
QVQLVESGGGLVQAGGSLRLSCASSGSTLRWYAMGWYRQAPGKERELVARISWTTGSTYYADSVKGRFTISRDNAKNTVYLQMNSLKPEDTAVYYCAKGKKSSRSGIYNYWGQGTQVTVSS	high polyreactivity
QVQLVESGGGLVQAGGSLRLSCAASGSTFRYYVMGWYRQAPWKERELVAGITKSGGNTYYADSVKGRFTISRDNAKNTVYLQMNSLKPEDTAVYYCAARGLWTRGYYYWGQGTQVTVSS	high polyreactivity
QVQLVESGGGLVQAGGSLRLSCAASGSIFIGYAMGWYRQAPGKERELVAAIDSNGDTTYYADSVKGRFTISRDNAKNTVYLQMNSLKPEDTAVYYCAVDPYHDQLVSDHYYWGQGTQVTVSS	low polyreactivity
QVQLVESGGVLGQAGGSLRLSCAASGFIFSTYTMAWYRPAPGKERDLVAAISRSGGRTYYADSVKGRFTISRDNAKYTVYLQMNSLKPEDTAVYYCNAAKGGRYPDYDYWGQGTQVTVSS	high polyreactivity
QVQLVESAAGLVQAGGSLRLSCAASGITFYRNAMGWYRQARGNEMELGAAITWNGGRTYYADSVKGRFTISRDNAKNTVYLQMNSLKPEDTALYYCAADSGTRNLASYRYYYWGQGTQVTVSS	high polyreactivity
QVQLVESGGGLVQAGGSLRLSCAASGRIFYGYAMGWYRQAPGKEREFVAAITSGGRTYYADSVKGRFTISRDNAKNTVYLQMNSLKPEDTAVYYCAAAQYYRYGYWGQGTQVTVSS	high polyreactivity
QVQLVESGGGLVQAGGSLRLSCAASGSILGGNAMGWYRQAPGKERELVAANTFSGGGTYYADSVKGRFTISRDNAKNTVYLQMKSLKPEDTAVYYCNADYKSTVFRYSGSRNYWGQGTQVTVSS	low polyreactivity
QFQLVESGGGLVQAGGSLRLSCAASGSIFGVYVMGWSRQGAGKERELVAAITRGASTNYADSVKGRFTISRDNAKNTVYLQMNSLKPEDTAVYYCAAESGNRYEYWGQGTQVTVSS	low polyreactivity
QVQLVESGGGLVQAGGSLRLSCAASGIIFPYYAMGWYRQATGKERELVAAITRGGITYYADSVKGRFTISRDNAKNTVYLQMNSLKPEDTAVYYCAARLRGSYDYWGQGTQVTVSS	high polyreactivity
QVQLVESGGGLVQAGGSLRLSCAASGYIFGGNTLGWYRQAPGKERELVAAISYSGTSTYYADSVKGRFTISRDNAKNTVYLQMNSLKPEDTAVYYCAARERWYGSYYWGQGTQVTVSS	high polyreactivity
QVQLVESVGGLVQAGGSLRLSCAASGSTFGFNAMGWYRQAPGKERELVAAIRRSDSSTYYADSVKGRFTISRDNAKNTVYLQMNSLKPEDTAVYYCAADVWVSWLLFKYEYWGQGTQVTVSS	low polyreactivity
QVQLEDSRGGLVQAGGSLRLSCAASGLILASYAMGWNRQAQGKERQLVSAISRSGGSTYYEDSVKVRFTISRDNAKITVYLQMKSLKPEHTAVYYFAAKYPPKTPVNTYGNSFYYWGQGTQVTVSS	low polyreactivity
QVQLVESGGGLVQAGGSLRLSCAASGIIFVRYVMGWYRQAPGKERELVAAINWSGGSTYYAYSVKGRFTISRDNANNTVYLQMNSLKPEDTAVYYCAAGSARDDDYWGQGTQVPVSS	high polyreactivity
QFQLVESGGGLVQAGGSLRLSCAASGYTLEYNAMGWYRQAPGKDRELGARIRWSGSSTYYADSVKGRFTISRDNAKNTVYLQMNSLKPEDTAVYYCATRYRRWKYDYWGQGTQVTVSS	high polyreactivity
QVQRVESGGGLVQAGGSHPLSCAASGITLRYYAMGWYRQAPGKERELVAAISGRGGGTYYADSVKGRFTISRDNAKNTVYLQMNSLKPEDTAVYYCNAVGQQQVEYEYWGQGTQVTVSS	high polyreactivity
QVQLVESGGGLVQAGGSLRLSCAASGRILPYYAMGWYRQAPGKERELVAAITSGGSTYYADSVKGRFTISRDNAKNTVYLQMNSLKPEDTAVYYCATDVDKSLYDYWGQGTQVTVSS	low polyreactivity
QVQLVESGGGLVQAGGSLRLSRAASGITFRFYAMGWYRQAPGKERQVVARISSSGSRTYYADSVKVRFTISRDNAKNTVYLQMNSLKPEDTAVYYCNAVRRRYQSLLQGDYWGQGTQVTVSS	high polyreactivity
QVQLVESGGGLVQAGGSLRLSCAASGLTFYVYAMGWYRQAPGKERELVAAISSGGRTYYADSVKGRFTISRDNAKNTVYLQMNSLKPEDTAVYYCAAVRHRNYWGQGTQVTVSS	high polyreactivity
QVQLVESGGGLVKAGGSLRLSCAASGITFYEYAMGWYRQAPGKERELVAAITTGGTTNYADSVKGRFTISRDNAKNTVYLQMNSLKPEDTAVYYCAKDLDSGGRGYYWGQGTQVTVSS	low polyreactivity
QVHLVDSGGGLVQAGGSLRLSCAASGFTFDYYAMGWYRQAPGKERELVAAITSDGSTYYADSVKGRFTISRDNAKNTVYLQMNSLKPEDTAVYYCAADGISLYATAYDYWGQGTQVTVSS	low polyreactivity
QVQLVESGGGLVQAGGSLRLSCAASGSILDPYVMGWYRQSPGKEWELVAAITQSGGSTYYADSVKGRFTISRDNAKNTVYLQMNSLKPEDTAVYYCATTRPIRRTSARYNYWGQGTQVTVSS	low polyreactivity
QVQLVESGGGLVQAGGSLRLSCAVSGRIFRRNVMGWYRQAPGKERELVAGISYSGDSTYYADSVKGRFTLSRDNAKITDYLQMNSLKPEDTAVYYCATRYTYSTDTGYDYWGQGTQVTVSS	low polyreactivity

Sequence	polyreactivity (PSR sort gate)
QVQLVESGGGLVQAGGSLRLSCAASGIIFGSYAMGWYRQAPGKEREFVADISKGDSTYYADSVKGRFTISRDNAKNTVYLQMNSLKPEDTAVYYCAVDSWRRALWYYGRYGYWGQGTQVTVSS	low polyreactivity
QVQLVESGGGLVQAGGSLRLTCAASGSIFRGYDMRWYRQAPGKERELVAASTWSGSTYYADSVKGRFTISRDNGKNTVYLQMNSLKPEDTAVYYCAAGSRYAYAYTMDYWGQGTQVTVSS	high polyreactivity
QVQLVESGGGLVQAGGSLRLSCAASGSTFYPYGMGWYRPAPGKERELVAAITDSGGSTYYADSVKGRFTISRDNAKNTVYLQMNSLKPEDTAVYYCAKTYWYPWRASLWHEYDYWGQGTQVTVSS	low polyreactivity
QVQLVESGGGLVQAGGSLRLSCAASGSIFNIYAMGWDRQAPGKERELVAAIRWTGGSTYYADSVKGRFTISRDTAKNTVDLQMTSLKPEATAVYYCAARTSRGGHYYWGPGTQVTVSS	high polyreactivity
QVQLVESGGGLVQAGGSLRLSCAASGSTFTIYAMGWYRQAPGKEREFVAAIDEDDGSTYYADSVKGRFTISRDNAKKTVYLQMNSLKPEDTAVYYCNADDIWAYAFDYWGQGTQVTVSS	low polyreactivity
QVQLVESGGGLVQAGGSLRLSCAASGRTFYYYAMGWYIQAPGKEREFVASISYSGARTYYADSVKGRFTISRDNAKNTVYLQMNSLKPEDTAVYYCNRYASNYGYIDYWGQGTQVTVSS	high polyreactivity
QVQLVESGGGLVQAGGSLRLSCAASGFTFKVYNAMGWYRQAPGKERELVAAITSSVGGTYYADSVKGRFTISRDNAKNTFYLQMNSLKPEDTAVYYFATDGPISPYWEWPWLLYDYWGQGTQVTVSS	low polyreactivity
QVQVVESGGGLVQAGGSLRLSCAASGSIFVYYTMGWYRQAPGKERELVAAITRGGRTNFADSVKGRFTISRDNAQNSVYLLMNSLNPEDTAVYYCAKGYYWLSTYGDSRYGYWGQGTQVTVSS	high polyreactivity
QVQLVESGGGLVQAGGSLRLSCAASGFTFGIYAMGWYRQAPGKERELVAAINVSDGSTYYADSVKGRFTISRDNAKNTVYLQMNILKPEDTAVYYCAAYLYVTIYTSYREYDYWGQGTQVTVSS	low polyreactivity
QVQLVESGGGLVQAGGSLRLSCAASGSIFSKYAMGWYRQAPGKERELVAAISGSGGDTYYADSVKGRFTISRDNAKNTVYLQMNSLKPEDTAVYFCAAEDQQNGYDYWGQGTQVTVSS	low polyreactivity
QVQLVESGGGLVQAGGSLRLSCAASGGTFDVYTMGWYRQAPGKERELVAAIDNGGSTNYADSVKGRFTISRDNAKHTVYLQMNSLKPEDTAVYYCAADEVYLFWGIAEFIYDYWGQGTQVTVSS	low polyreactivity
QLQLVESGGGLVQAGGSLRLSCAASRRIFSPNAMGWYRQAPGKESELVAAIRWNGGRTYYADSVKGRFTISRDTAKNTVYLQMNSLKPEDTAVYYCAATYFGPDYVRYDDWGQGTQVTVSS	high polyreactivity
QVQLVESGGGLVQAGGSLRLSCAASGSIFKWYAMGWYRQAHGKERELVAAITNGGGSTYYADSVKGRFTISRDNAKNTVYLQMNSLKPEDTAVYYCNADSYYYPYDYWGQGTQVTVSS	low polyreactivity
QVQLVESGGGLVQAGGSLRLSCAASGRTFGVYAMGWYRQAPGKERELVAAISATGGSTYYADSVKGRFTISRDNAKNTVYLQMNSLKPEDTAVYYCARGGTTLYWGQGTQVTVSS	high polyreactivity
QVQLVESGGGLVQAGGSLRLSCAASGRIFYYYAMGWYRQAPVKERELVAAISQRGGRTYYADSVKVRFTISRDNAKNTVYLQMNSLKPEDTAVYYCNAYPVYGRYTHYGYGHWGQGTQVTVSS	high polyreactivity
HVQLVESGGGLVQAGGRLRLSCAASGRTFWYYTMGWYRQAPGKDRELVAAITSVGSTYYADSVKGRFTISRDNAKNTVYLQMNSLKPEDTAVYYCAKLYSYTHQSFDHWGQGTQVTVSS	high polyreactivity
QVHLVESGGGLVQAGGSLRLSCAASGYTFRYYAMGWYRQAPGKERELVAAINWSGGSTYYADSVKGRFTISRDNAKNTVYLQMNSLTPEDTAVYYCAADPDGDLDIDYDYWGQGTQVTVSS	low polyreactivity
QVQLVESGGGLVQAGGSLRLSCAASGTFAGNAMGWYRQAPGKERELVAAITTGGRTYYADSVKGRFTISRDNAKNTVYLQMNSLKPEDTAVYYCAADRIRDLEFDYWGQGTQVTVSS	low polyreactivity
QVQLVESGGGLVQAGGSLRLSCAASGSIFTWYAMGWYRQAPGKERELVAAITRGGSTYADSVKGRFTISRDNAKNTVYLQMNSLKPEDSAVYYCNAVYGVYDFTYWGPGTQVTVSS	low polyreactivity
QVQLVESGGCLVQAGGSLRLSCAASGRTFNRYAMGWYRQAPGKERELVAAITRRGGSTYYADSVKGRFTISRDNAKNTVYLQMNSLKPEDTAVYYCATDTYYSDYGSWGQGTQVTVSS	high polyreactivity
QVQLLESGGGLVQAGGSLRLSCAPSGRTLVHYGMGWYRHAPGKERELVAAISYSGGRTYYADSVKGRVTISRDNAKNTVYLQMNSLKPEDTAVYYCAKDFGSYQRRYGYWGQGTQVTVSS	high polyreactivity
